Results: patent publication US10428140B2, “Anti-EphA4 antibody” (EISAI R&D MANAGEMENT CO., LTD., priority 2015, dated 2019)
Positions count from the first letter of the chain named.

T1: human EphA3 (Homo sapiens, UniProt P29320)
T1 construct: a protein of the extracellular region of each human Eph receptor fused with the SEAP protein and the His tag; made in house; host or cells: Expi293F cells (culture supernatant)
T1 sequence (P29320 21-541 limits assumed): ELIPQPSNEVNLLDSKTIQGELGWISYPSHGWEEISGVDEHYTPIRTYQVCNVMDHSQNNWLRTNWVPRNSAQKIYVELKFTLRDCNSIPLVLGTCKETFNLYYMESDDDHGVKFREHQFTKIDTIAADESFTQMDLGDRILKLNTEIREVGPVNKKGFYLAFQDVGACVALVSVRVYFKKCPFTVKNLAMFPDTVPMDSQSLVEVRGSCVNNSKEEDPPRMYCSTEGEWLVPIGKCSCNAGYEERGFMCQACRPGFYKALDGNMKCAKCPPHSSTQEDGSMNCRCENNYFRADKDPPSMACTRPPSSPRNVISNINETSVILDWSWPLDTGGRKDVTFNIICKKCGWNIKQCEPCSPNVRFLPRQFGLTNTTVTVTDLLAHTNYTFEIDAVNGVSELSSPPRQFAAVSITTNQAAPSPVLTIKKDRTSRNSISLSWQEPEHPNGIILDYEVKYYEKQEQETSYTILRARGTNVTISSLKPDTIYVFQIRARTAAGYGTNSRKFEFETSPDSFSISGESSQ

T2: human EphA7 (Homo sapiens, UniProt Q15375)
T2 construct: a protein of the extracellular region of each human Eph receptor fused with the SEAP protein and the His tag; made in house; host or cells: Expi293F cells (culture supernatant)
T2 sequence (Q15375 28-555 limits assumed): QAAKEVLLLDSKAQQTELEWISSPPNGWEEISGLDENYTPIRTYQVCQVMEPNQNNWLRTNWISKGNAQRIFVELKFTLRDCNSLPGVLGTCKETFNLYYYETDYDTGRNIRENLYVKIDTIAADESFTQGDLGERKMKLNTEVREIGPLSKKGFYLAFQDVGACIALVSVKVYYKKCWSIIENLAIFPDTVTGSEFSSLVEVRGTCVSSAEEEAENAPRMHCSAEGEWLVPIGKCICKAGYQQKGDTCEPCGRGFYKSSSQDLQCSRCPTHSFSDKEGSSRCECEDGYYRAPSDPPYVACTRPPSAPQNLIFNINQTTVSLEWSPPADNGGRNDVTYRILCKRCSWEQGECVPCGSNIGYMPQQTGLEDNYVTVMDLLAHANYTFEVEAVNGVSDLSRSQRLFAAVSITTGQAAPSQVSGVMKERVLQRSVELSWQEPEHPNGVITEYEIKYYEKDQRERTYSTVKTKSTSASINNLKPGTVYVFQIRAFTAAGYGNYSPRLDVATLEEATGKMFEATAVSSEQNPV

T3: human EphB3 (Homo sapiens, UniProt P54753)
T3 construct: a protein of the extracellular region of each human Eph receptor fused with the SEAP protein and the His tag; made in house; host or cells: Expi293F cells
T3 sequence (P54753 34-559 limits assumed): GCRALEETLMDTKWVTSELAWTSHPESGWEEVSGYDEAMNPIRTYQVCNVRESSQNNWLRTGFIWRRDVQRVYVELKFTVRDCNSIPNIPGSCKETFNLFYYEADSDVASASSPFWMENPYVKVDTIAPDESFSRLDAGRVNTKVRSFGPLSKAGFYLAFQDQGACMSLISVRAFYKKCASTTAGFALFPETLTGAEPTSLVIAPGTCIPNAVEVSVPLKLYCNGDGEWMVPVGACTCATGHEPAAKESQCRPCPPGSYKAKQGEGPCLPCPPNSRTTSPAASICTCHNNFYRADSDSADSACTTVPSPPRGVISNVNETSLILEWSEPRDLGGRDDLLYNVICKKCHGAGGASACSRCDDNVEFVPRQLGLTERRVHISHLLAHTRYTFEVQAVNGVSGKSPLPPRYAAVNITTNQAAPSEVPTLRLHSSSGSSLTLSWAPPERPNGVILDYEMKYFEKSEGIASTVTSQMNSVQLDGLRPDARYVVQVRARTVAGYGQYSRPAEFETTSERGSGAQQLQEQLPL

B1: 76 (antibody, V domains shown)
VH: QVQLVQSGSELKKPGASVKVSCKASGYTFTDYSMHWVRQAPGQGLKWMGWINTETGEPTYAQGFTGRFVFSLDTSVSTAYLQISSLKAEDTAVYYCARIPLYYYGSRYWYFDVWGQGTTVTVSS
VL: DIQMTQSPSSLSASVGDRVTITCRASENIYRNLAWYQQKPGKAPKLLVYAATNLADGVPSRFSGSGSGTDYTLTISSLQPEDFATYYCQHFWGTPWTFGQGTKVEIK
modifications: synthetic humanized antibody heavy chain variable region sequence; synthetic humanized antibody light chain variable region sequence
B2: 77 (antibody, V domains shown)
VH: B1 VH with K46E, Q62D, G63D, T65K
VL: B1 VL
modifications: synthetic humanized antibody heavy chain variable region sequence; synthetic humanized antibody light chain variable region sequence
B3: 67 (antibody, V domains shown)
VH: B1 VH with V2I
VL: B1 VL
modifications: synthetic humanized antibody heavy chain variable region sequence; synthetic humanized antibody light chain variable region sequence
B4: 78 (antibody, V domains shown)
VH: B1 VH with Q62D, G63D, T65K
VL: B1 VL
modifications: synthetic humanized antibody heavy chain variable region sequence; synthetic humanized antibody light chain variable region sequence
B5: 136 (antibody, V domains shown)
VH: B1 VH with Q62D, G63D, T65K
VL: EIVMTQSPATLSVSPGERATLSCRASENIYRNLAWYQQKPGQSPRLLIYAATNLADGIPARFSGSGSGTEYTLTISSLQSEDFAVYYCQHFWGTPWTFGQGTKVEIK
modifications: synthetic humanized antibody heavy chain variable region sequence; synthetic humanized antibody light chain variable region sequence
B6: 156 (antibody, V domains shown)
VH: B1 VH with V2I
VL: B1 VL with K45Q, V48L
modifications: synthetic humanized antibody heavy chain variable region sequence; synthetic humanized antibody light chain variable region sequence

target: SEAP-His (Homo sapiens, UniProt P05187); experiment: Selectivity ELISA of humanized antibodies for human Eph receptor; format: binding; conditions: coated protein 1 nM
Sequence (P05187 23-511 limits assumed): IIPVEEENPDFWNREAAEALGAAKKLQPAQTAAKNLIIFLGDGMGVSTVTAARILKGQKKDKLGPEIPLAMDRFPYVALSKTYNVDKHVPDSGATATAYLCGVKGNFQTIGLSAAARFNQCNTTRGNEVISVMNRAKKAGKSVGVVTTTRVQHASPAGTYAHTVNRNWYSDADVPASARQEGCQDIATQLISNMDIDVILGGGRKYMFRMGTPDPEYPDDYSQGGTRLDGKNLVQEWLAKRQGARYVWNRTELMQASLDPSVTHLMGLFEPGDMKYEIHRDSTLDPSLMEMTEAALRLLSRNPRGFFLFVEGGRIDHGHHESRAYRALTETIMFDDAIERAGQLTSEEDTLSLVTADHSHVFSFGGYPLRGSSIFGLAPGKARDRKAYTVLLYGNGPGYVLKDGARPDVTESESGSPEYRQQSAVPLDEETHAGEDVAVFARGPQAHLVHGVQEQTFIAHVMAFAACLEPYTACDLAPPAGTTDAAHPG
Outline: (§1)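 Capture ELISA: anti-6-His coat, 1% BlockAce block, Eph ECD-SEAP-His (1 nM final, Expi293F supernatant) 1 h RT, humanized Ab 1 h RT, HRP anti-IgG 1 h RT, TMB, H2SO4 stop, A450.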

SEAP-His: absorbance at 450 nm, percentage with respect to hEphA4-SEAP-His as 100% [%]	Molecule
5.5	B1
4.7	B2
5.0	B3
5.3	B4
5.2	B5
5.4	B6

target: T1, human EphA3; experiment: as above; format: binding; conditions: coated protein 1 nM
Outline: as §1

hEphA3-SEAP-: absorbance at 450 nm, percentage with respect to hEphA4-SEAP-His as 100% [%]	Molecule
4.9	B1
4.5	B2
4.8	B3
5.1	B4
5.2	B5
5.7	B6

target: T4, human EphA5 (Homo sapiens, UniProt P54756); experiment: as above; format: binding; conditions: coated protein 1 nM
T4 construct: a protein of the extracellular region of each human Eph receptor fused with the SEAP protein and the His tag; made in house; host or cells: Expi293F cells (culture supernatant)
T4 sequence (P54756 25-573 limits assumed): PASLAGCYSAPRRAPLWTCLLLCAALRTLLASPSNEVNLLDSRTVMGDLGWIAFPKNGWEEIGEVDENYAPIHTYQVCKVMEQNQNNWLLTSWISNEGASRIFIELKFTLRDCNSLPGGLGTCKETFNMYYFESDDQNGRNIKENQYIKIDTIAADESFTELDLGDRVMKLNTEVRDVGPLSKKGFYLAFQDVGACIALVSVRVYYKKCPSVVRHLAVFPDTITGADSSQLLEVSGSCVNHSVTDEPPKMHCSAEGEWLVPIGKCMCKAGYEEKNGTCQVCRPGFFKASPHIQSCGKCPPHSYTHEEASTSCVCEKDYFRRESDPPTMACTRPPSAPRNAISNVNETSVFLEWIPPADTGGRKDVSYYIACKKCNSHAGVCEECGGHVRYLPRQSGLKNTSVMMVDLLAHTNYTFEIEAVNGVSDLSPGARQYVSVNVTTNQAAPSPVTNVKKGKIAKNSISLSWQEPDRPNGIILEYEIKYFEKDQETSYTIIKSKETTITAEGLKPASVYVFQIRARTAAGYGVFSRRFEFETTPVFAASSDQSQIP
Outline: as §1

hEphA5-SEAP-: absorbance at 450 nm, percentage with respect to hEphA4-SEAP-His as 100% [%]	Molecule
5.3	B1
4.4	B2
4.8	B3
5.1	B4
5.2	B5
5.7	B6

target: T2, human EphA7; experiment: as above; format: binding; conditions: coated protein 1 nM
Outline: as §1

hEphA7-SEAP-: absorbance at 450 nm, percentage with respect to hEphA4-SEAP-His as 100% [%]	Molecule
4.8	B1
4.3	B2
4.7	B3
5.0	B4
5.4	B5
5.6	B6

target: T3, human EphB3; experiment: as above; format: binding; conditions: coated protein 1 nM
Outline: as §1

hEphB3-SEAP-: absorbance at 450 nm, percentage with respect to hEphA4-SEAP-His as 100% [%]	Molecule
5.0	B1
4.6	B2
4.9	B3
5.2	B4
5.5	B5
5.6	B6
